Data published in US20170368169A1 (MARENGO THERAPEUTICS, published 2017).

What was measured:
[1] = molecular target: T1, human PD1L1 (generated from SEQ ID NO: 178) (human); assay: ELISA on plate-bound antigen, molecule titrated 1 uM-1 pM
T1 construct: Antigen construct made in house; also called hPD1L1; human PDL1

[2] = molecular target: T2, human mesothelin (generated from SEQ ID NO: 181) (human); assay: as above
T2 construct: Antigen construct made in house; BirA was co-transfected when biotinylation was required; also called hMeso 1-7; hMesothelin
T2 chain: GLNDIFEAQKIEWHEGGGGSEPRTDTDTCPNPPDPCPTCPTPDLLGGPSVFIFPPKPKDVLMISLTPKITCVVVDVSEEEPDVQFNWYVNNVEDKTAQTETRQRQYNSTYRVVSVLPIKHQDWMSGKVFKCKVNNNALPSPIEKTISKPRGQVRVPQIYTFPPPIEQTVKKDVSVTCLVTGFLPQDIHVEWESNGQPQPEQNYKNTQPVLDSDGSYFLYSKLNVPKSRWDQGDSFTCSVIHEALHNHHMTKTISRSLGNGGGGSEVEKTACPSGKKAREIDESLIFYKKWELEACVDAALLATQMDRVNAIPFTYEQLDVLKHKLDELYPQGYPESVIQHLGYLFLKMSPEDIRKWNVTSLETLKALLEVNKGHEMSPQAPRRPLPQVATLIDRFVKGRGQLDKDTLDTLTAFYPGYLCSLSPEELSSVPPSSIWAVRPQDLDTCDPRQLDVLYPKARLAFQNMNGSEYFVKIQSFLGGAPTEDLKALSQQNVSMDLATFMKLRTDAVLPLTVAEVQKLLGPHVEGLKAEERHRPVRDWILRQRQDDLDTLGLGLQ

EC50 [1]: 0.25 nM
EC50 [2]: 163 nM
B1: Multispecific molecule 5 (bispecific antibody, human IgG1, kappa, lambda)
heavy 1: not shown
light 1: not shown
heavy 2: EVQLLESGGGLVQPGGSLRLSCAASGFTFSSYIMMWVRQAPGKGLEWVSSIYPSGGITFYADTVKGRFTISRDNSKNTLYLQMNSLRAEDTAVYYCARIKLGTVTTVDYWGQGTLVTVSSASTKGPSVFPLAPSSKSTSGGTAALGCLVKDYFPEPVTVSWNSGALTSGVHTFPAVLQSSGLYSLSSVVTVPSSSLGTQTYICNVNHKPSNTKVDKRVEPKSCDKTHTCPPCPAPELLGGPSVFLFPPKPKDTLMISRTPEVTCVVVDVSHEDPEVKFNWYVDGVEVHNAKTKPREEQYNSTYRVVSVLTVLHQDWLNGKEYKCKVSNKALPAPIEKTISKAKGQPREPQVCTLPPSREEMTKNQVSLSCAVKGFYPSDIAVEWESNGQPENNYKTTPPVLDSDGSFFLVSKLTVDKSRWQQGNVFSCSVMHEALHNHYTQKSLSLSPGK
light 2: QSALTQPASVSGSPGQSITISCTGTSSDVGGYNYVSWYQQHPGKAPKLMIYDVSNRPSGVSNRFSGSKSGNTASLTISGLQAEDEADYYCSSYTSSSTRVFGTGTKVTVLGQPKANPTVTLFPPSSEELQANKATLVCLISDFYPGAVTVAWKADGSPVKAGVETTKPSKQSNNKYAASSYLSLTPEQWKSHRSYSCQVTHEGSTVEKTVAPTECS
notes: Mesothelin targeting arm and PDL1 targeting arm
